Key:
Experiment in all cases: holdup assay
Parameters in all cases: key: below the threshold = too weak to quantify, mostly under pKd 3.1 to 4
MPDZ_5, O75970 = molecular target: T1, MPDZ_5, O75970
T1 sequence (O75970 695-796, limits assumed, looked up): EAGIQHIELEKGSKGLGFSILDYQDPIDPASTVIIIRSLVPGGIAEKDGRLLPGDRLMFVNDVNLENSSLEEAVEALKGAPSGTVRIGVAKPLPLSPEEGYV

GRIP1_7, Q9Y3R0 = molecular target: T2, GRIP1_7, Q9Y3R0
T2 sequence (Q9Y3R0 999-1096, limits assumed, looked up): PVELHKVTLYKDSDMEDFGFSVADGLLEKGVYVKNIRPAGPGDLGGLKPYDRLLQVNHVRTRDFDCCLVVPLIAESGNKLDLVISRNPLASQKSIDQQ

FRMPD2_2, Q68DX3 = molecular target: FRMPD2_2, Q68DX3
RADIL, Q96JH8 = molecular target: T3, RADIL, Q96JH8
T3 sequence (Q96JH8 971-1071, limits assumed, looked up): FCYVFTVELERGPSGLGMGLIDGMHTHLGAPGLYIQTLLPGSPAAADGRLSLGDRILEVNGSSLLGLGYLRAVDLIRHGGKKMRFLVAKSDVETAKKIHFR

MAGI3_2, Q5TCQ9 = molecular target: MAGI3_2, Q5TCQ9
Inadl_2, Q8NI35 = molecular target: Inadl_2, Q8NI35
LRRC7, Q96NW7 = molecular target: T4, LRRC7, Q96NW7
T4 sequence (Q96NW7 1440-1537, limits assumed, looked up): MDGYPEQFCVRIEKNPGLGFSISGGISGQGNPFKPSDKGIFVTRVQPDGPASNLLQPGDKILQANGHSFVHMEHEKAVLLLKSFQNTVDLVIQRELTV

LDB3, O75112 = molecular target: LDB3, O75112
CARD11, Q9BXL7 = molecular target: T5, CARD11, Q9BXL7
T5 sequence (Q9BXL7 662-765, limits assumed, looked up): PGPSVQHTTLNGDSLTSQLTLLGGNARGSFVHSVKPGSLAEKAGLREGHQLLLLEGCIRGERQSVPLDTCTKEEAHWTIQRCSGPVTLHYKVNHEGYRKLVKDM

MPP7, Q5T2T1 = molecular target: T6, MPP7, Q5T2T1
T6 sequence (Q5T2T1 134-230, limits assumed, looked up): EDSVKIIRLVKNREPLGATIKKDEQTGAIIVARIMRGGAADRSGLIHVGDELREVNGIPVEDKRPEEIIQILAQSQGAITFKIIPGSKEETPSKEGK

MAGI2_5, Q86UL8 = molecular target: MAGI2_5, Q86UL8
FRMPD3, Q5JV73 = molecular target: FRMPD3, Q5JV73
HTRA2, O43464 = molecular target: HTRA2, O43464
GRIP2_6, Q9C0E4 = molecular target: GRIP2_6, Q9C0E4
MAST1, Q9Y2H9 = molecular target: MAST1, Q9Y2H9
RAPGEF6, Q8TEU7 = molecular target: T7, RAPGEF6, Q8TEU7
T7 sequence (Q8TEU7 525-625, limits assumed, looked up): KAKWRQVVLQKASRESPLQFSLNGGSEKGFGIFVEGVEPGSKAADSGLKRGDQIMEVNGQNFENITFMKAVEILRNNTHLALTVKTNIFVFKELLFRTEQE

Inadl_4, Q8NI35 = molecular target: Inadl_4, Q8NI35
DFNB31_1, Q9P202 = molecular target: T8, DFNB31_1, Q9P202
T8 sequence (Q9P202 135-233, limits assumed, looked up): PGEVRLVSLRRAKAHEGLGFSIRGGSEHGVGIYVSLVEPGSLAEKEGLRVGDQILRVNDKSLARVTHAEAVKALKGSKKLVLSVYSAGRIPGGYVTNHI

MPP6, Q9NZW5 = molecular target: T9, MPP6, Q9NZW5
T9 sequence (Q9NZW5 125-219, limits assumed, looked up): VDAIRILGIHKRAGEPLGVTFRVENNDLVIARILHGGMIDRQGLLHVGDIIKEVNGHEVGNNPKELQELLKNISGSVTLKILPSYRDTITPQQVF

GOPC, Q9HD26 = molecular target: GOPC, Q9HD26
DLG4_2, P78352 = molecular target: DLG4_2, P78352
NHERF4_1, Q86UT5-2 = molecular target: NHERF4_1, Q86UT5-2
FRMPD4, Q14CM0 = molecular target: FRMPD4, Q14CM0
MPDZ_10, O75970 = molecular target: T10, MPDZ_10, O75970
T10 sequence (O75970 1624-1722, limits assumed, looked up): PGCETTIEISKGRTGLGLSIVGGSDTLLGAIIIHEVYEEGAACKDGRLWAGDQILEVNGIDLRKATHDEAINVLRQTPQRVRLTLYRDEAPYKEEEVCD

IL16_1, Q14005 = molecular target: IL16_1, Q14005
GRIP1_2, Q9Y3R0 = molecular target: T11, GRIP1_2, Q9Y3R0
T11 sequence (Q9Y3R0 145-248, limits assumed, looked up): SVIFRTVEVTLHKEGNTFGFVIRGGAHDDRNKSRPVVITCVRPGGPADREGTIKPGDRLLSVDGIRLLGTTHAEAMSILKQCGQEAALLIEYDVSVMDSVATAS

[1] = plain residues with an end cap or a label only (N-terminal biotin on a linker: ado-ado)
[2] = modified: phospho on T at position -2 from the C-terminal residue

Sequence of FRMPD3, Q5JV73 (Q5JV73 12-100): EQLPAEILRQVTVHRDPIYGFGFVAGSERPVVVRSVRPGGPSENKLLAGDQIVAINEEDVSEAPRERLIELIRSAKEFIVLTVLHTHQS
Sequence of GRIP2_6, Q9C0E4 (Q9C0E4 648-740): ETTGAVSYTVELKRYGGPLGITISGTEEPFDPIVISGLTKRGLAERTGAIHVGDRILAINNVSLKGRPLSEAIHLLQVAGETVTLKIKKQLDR
Sequence of MAGI2_5, Q86UL8 (Q86UL8 915-1017): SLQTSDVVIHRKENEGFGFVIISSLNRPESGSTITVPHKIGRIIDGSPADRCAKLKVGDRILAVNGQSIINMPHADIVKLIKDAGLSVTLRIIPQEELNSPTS
Sequence of Inadl_4, Q8NI35 (Q8NI35 547-651): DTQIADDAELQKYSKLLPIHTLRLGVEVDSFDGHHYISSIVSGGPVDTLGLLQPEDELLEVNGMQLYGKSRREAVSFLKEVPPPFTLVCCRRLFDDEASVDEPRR
Sequence of LDB3, O75112 (O75112 1-94): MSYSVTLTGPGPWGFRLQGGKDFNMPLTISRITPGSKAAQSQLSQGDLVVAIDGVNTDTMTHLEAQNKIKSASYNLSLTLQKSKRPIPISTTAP
Sequence of IL16_1, Q14005 (Q14005 210-306): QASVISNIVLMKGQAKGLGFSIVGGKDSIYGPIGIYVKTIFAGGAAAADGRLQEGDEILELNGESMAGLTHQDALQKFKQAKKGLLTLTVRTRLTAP
Sequence of NHERF4_1, Q86UT5-2 (Q86UT5 other isoform, or with tags, fused parts or gaps): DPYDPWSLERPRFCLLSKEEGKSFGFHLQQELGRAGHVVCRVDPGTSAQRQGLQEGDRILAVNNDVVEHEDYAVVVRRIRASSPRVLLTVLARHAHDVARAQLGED
Sequence of Inadl_2, Q8NI35 (Q8NI35 238-335): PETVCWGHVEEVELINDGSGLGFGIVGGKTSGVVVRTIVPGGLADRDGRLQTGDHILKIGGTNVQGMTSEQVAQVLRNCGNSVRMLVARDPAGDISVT
Sequence of HTRA2, O43464 (O43464 355-458): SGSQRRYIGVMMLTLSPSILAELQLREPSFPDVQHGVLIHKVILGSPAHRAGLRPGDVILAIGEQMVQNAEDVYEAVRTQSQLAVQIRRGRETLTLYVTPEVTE
Sequence of MAST1, Q9Y2H9 (Q9Y2H9 962-1065): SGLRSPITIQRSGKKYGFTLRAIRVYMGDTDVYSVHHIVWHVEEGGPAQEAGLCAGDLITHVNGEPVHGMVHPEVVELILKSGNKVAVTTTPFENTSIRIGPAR
Sequence of FRMPD4, Q14CM0 (Q14CM0 67-160): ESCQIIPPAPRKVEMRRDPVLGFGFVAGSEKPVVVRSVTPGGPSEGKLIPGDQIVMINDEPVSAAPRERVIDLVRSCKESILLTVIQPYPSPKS
Sequence of DLG4_2, P78352 (P78352 155-259): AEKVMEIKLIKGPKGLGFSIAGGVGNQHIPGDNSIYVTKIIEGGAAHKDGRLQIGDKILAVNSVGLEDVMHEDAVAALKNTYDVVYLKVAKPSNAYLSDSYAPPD
Sequence of FRMPD2_2, Q68DX3 (Q68DX3 944-1038): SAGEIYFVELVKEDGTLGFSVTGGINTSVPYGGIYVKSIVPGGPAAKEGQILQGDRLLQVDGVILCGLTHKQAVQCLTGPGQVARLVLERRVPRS
Sequence of MAGI3_2, Q5TCQ9 (Q5TCQ9 398-503): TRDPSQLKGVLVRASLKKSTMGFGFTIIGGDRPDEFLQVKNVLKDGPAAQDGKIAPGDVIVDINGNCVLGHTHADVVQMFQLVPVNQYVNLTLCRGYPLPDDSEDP

With LRSPRTPSEV [OR10G3, Q8NGC4] the pKd (MPDZ_5, O75970; [1]) was 3.82, the pKd (GRIP1_7, Q9Y3R0; [1]) was “below the threshold” and the pKd (FRMPD2_2, Q68DX3; [1]) was “below the threshold”. The pKd (RADIL, Q96JH8; [1]) was “below the threshold”, the pKd (MAGI3_2, Q5TCQ9; [1]) was 4.4 and the pKd (Inadl_2, Q8NI35; [1]) was “below the threshold”. For the same binder, the pKd (LRRC7, Q96NW7; [1]) was 3.48, the pKd (LDB3, O75112; [1]) was “below the threshold” and the pKd (CARD11, Q9BXL7; [1]) was “below the threshold”. The pKd (MPP7, Q5T2T1; [1]) was “below the threshold”, the pKd (MAGI2_5, Q86UL8; [1]) was “below the threshold” and the pKd (FRMPD3, Q5JV73; [1]) was “below the threshold”. For the same binder, the pKd (HTRA2, O43464; [1]) was “below the threshold”, the pKd (GRIP2_6, Q9C0E4; [1]) was “below the threshold” and the pKd (MAST1, Q9Y2H9; [1]) was “below the threshold”. For the same binder, the pKd (RAPGEF6, Q8TEU7; [1]) was “below the threshold”, the pKd (Inadl_4, Q8NI35; [1]) was “below the threshold” and the pKd (DFNB31_1, Q9P202; [1]) was “below the threshold”. The pKd (MPP6, Q9NZW5; [1]) was “below the threshold”, the pKd (GOPC, Q9HD26; [1]) was “below the threshold” and the pKd (DLG4_2, P78352; [1]) was 3.88. For the same binder, the pKd (NHERF4_1, Q86UT5-2; [1]) was 3.63, the pKd (FRMPD4, Q14CM0; [1]) was “below the threshold” and the pKd (MPDZ_10, O75970; [1]) was 3.67. The pKd (IL16_1, Q14005; [1]) was “below the threshold” and the pKd (GRIP1_2, Q9Y3R0; [1]) was “below the threshold”.

For SKPTRRETEV [HPV35-E6_-2P, P27228], the pKd (MPDZ_5, O75970; [2]) was “below the threshold”, the pKd (GRIP1_7, Q9Y3R0; [2]) was “below the threshold” and the pKd (FRMPD2_2, Q68DX3; [2]) was “below the threshold”. The pKd (RADIL, Q96JH8; [2]) was “below the threshold”, the pKd (MAGI3_2, Q5TCQ9; [2]) was “below the threshold” and the pKd (Inadl_2, Q8NI35; [2]) was “below the threshold”. The pKd (LRRC7, Q96NW7; [2]) was “below the threshold”, the pKd (LDB3, O75112; [2]) was “below the threshold” and the pKd (CARD11, Q9BXL7; [2]) was “below the threshold”. For the same binder, the pKd (MPP7, Q5T2T1; [2]) was “below the threshold”, the pKd (MAGI2_5, Q86UL8; [2]) was “below the threshold” and the pKd (FRMPD3, Q5JV73; [2]) was “below the threshold”. The pKd (HTRA2, O43464; [2]) was “below the threshold”, the pKd (GRIP2_6, Q9C0E4; [2]) was “below the threshold” and the pKd (MAST1, Q9Y2H9; [2]) was “below the threshold”. For the same binder, the pKd (RAPGEF6, Q8TEU7; [2]) was “below the threshold”, the pKd (Inadl_4, Q8NI35; [2]) was “below the threshold” and the pKd (DFNB31_1, Q9P202; [2]) was “below the threshold”. The pKd (MPP6, Q9NZW5; [2]) was 3.78, the pKd (GOPC, Q9HD26; [2]) was “below the threshold” and the pKd (DLG4_2, P78352; [2]) was 3.56. For the same binder, the pKd (NHERF4_1, Q86UT5-2; [2]) was 3.6, the pKd (FRMPD4, Q14CM0; [2]) was “below the threshold” and the pKd (MPDZ_10, O75970; [2]) was “below the threshold”. For the same binder, the pKd (IL16_1, Q14005; [2]) was “below the threshold” and the pKd (GRIP1_2, Q9Y3R0; [2]) was “below the threshold”.

In the case of RRRESYSTTV [EVI5, O60447], the pKd (MPDZ_5, O75970; [1]) is reported as “below the threshold”, the pKd (GRIP1_7, Q9Y3R0; [1]) is reported as “below the threshold” and the pKd (FRMPD2_2, Q68DX3; [1]) is reported as 3.74. For the same binder, the pKd (RADIL, Q96JH8; [1]) was 4.8, the pKd (MAGI3_2, Q5TCQ9; [1]) was 5.18 and the pKd (Inadl_2, Q8NI35; [1]) was “below the threshold”. For the same binder, the pKd (LRRC7, Q96NW7; [1]) was “below the threshold”, the pKd (LDB3, O75112; [1]) was “below the threshold” and the pKd (CARD11, Q9BXL7; [1]) was “below the threshold”. The pKd (MPP7, Q5T2T1; [1]) was “below the threshold”, the pKd (MAGI2_5, Q86UL8; [1]) was 4.54 and the pKd (FRMPD3, Q5JV73; [1]) was “below the threshold”. For the same binder, the pKd (HTRA2, O43464; [1]) was “below the threshold”, the pKd (GRIP2_6, Q9C0E4; [1]) was 4.61 and the pKd (MAST1, Q9Y2H9; [1]) was 4.82. For the same binder, the pKd (RAPGEF6, Q8TEU7; [1]) was “below the threshold”, the pKd (Inadl_4, Q8NI35; [1]) was “below the threshold” and the pKd (DFNB31_1, Q9P202; [1]) was 3.52. The pKd (MPP6, Q9NZW5; [1]) was “below the threshold”, the pKd (GOPC, Q9HD26; [1]) was 4.36 and the pKd (DLG4_2, P78352; [1]) was 5.87. For the same binder, the pKd (NHERF4_1, Q86UT5-2; [1]) was “below the threshold”, the pKd (FRMPD4, Q14CM0; [1]) was 3.79 and the pKd (MPDZ_10, O75970; [1]) was “below the threshold”. For the same binder, the pKd (IL16_1, Q14005; [1]) was “below the threshold” and the pKd (GRIP1_2, Q9Y3R0; [1]) was “below the threshold”.

From publication PMC9482650, “Quantitative fragmentomics allow affinity mapping of interactomes” (Nature Communications, 2022)
